Measurements taken from patent US20100239597A1 (NORTHWESTERN UNIVERSITY, published 2010).
Changes are numbered by the printed parent chain.

Assays:
[1] = molecular target: T1, Aβ40 monomer (UniProt P05067 672-711); experiment: titration ELISA on Aβ40 monomer, A450 nm; Hu20C2A3 produced in CHO
T1 construct: domain: Aβ(1-40); also called Aβ monomer; amyloid beta (1-40) peptide

[2] = molecular target: T2, Aβ-derived diffusible ligands (ADDLs) (UniProt P05067 672-713); experiment: titration ELISA on captured ADDL, A450 nm; Hu20C2A3 produced in Pichia
T2 construct: domain: Aβ1-42
Experimental: (§1) Affinity maturation was carried out to improve affinity and improve preferential binding to ADDL. To evaluate ADDL binding affinity of the humanized antibodies, BIACORE™ and titration ELISAs were conducted as disclosed herein. Briefly, Streptavidin-coated, 96-well microtiter plates (Sigma, St. Louis, Mo.) were coated with 10% biotinylated ADDL antigen (1 μM). A series of 2-fold dilutions of purified antibody, starting at 500 ng/mL was added to the ADDL captured plates and the plates were incubated for 2 hours at 25° C. After washing five times with PBS solution using a plate washer (Bio-Tek, Winooski, Va.), polyclonal goat anti-human kappa light chain antibody (Biomeda, Foster City, Calif.) was added at a 1/2000 dilution in 3% non-fat milk blocker and incubated at room temperature for 1 hour. A rabbit anti-goat IgG (H+L) HRP-conjugated (Bethyl Laboratories, Inc., Montgomery, Tex.) detection antibody was then added at a 1/2000 dilution in blocking solution and incubated for 1 hour at room temperature. After washing with PBS, HRP substrate, 3,3′,5′5-tetramethylbenzidine (ready-to-use TMB; Sigma, St. Louis, Mo.) was added and the reaction was stopped after 10 minutes with 0.5 N H₂SO₄. Absorbance at wavelength of 450 nm was read in a plate reader (model VICTOR V; Perkin Elmer, Boston, Mass.) and data were processed using EXCEL® work sheet.

[3] = molecular target: T2, Aβ-derived diffusible ligands (ADDLs); experiment: titration ELISA on captured ADDL, A450 nm; Hu20C2A3 produced in CHO
Experimental: as §1

[4] = molecular target: T1, Aβ40 monomer; experiment: titration ELISA on Aβ40 monomer, A450 nm; Hu20C2A3 produced in Pichia
[5] = molecular target: T3, biotinylated ADDL (bADDL) (UniProt P05067 672-713, N-terminal biotin); experiment: BIACORE, Fab against bADDL
T3 construct: domain: Aβ1-42; Panning and ELISA speak of 10% biotinylated ADDL; also called bADDLs; high molecular weight bADDL

[6] = molecular target: T4, biotin-Aβ1-20 (UniProt P05067 672-691, biotin (site not stated)); experiment: BIACORE, Fab against biotinylated-Aβ1-20
T4 construct: domain: Aβ1-20; Monomeric Aβ fragment used as BIACORE antigen; also called biotinylated-Aβ1-20
T4 peptide (looked up): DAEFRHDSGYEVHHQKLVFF

[7] = molecular target: T3, biotinylated ADDL (bADDL); experiment: BIACORE, bADDL as antigen; Fab
[8] = molecular target: T3, biotinylated ADDL (bADDL); experiment: BIACORE, bADDL as antigen; IgG1#1
[9] = molecular target: T3, biotinylated ADDL (bADDL); experiment: BIACORE, bADDL as antigen; IgG1#2

B1: Hu20C2A3 (veneered version of clone A3, IgG2m4 isotype) (antibody, V domains shown)
VH: QVTLKESGPGLLKPTQTLTLTCTLSGFSLSTSGMGVGWFRQPPGKGLEWLAHIWWDDDKSYNPSLKSRLTISKDTSKNQVVLTITNVDPVDTATYYCARRQLGTRGTDAMDYWGQGTTVTVSS
VL: DVVMTQTPLSLPVTPGQPASISCRSSQSILHSNGNTYLEWYLQKPGQSPQLLIYKVSNRFSGVPDRFSGSGSGTDFTLKISRVEAEDVGVYYCLQTTRVPLTFGQGTKLEIKR
notes: To be checked against the listing; also called Hu20C2A3 IgG2m4
For B1, the “EC50 (read off the curve)” value [1] was ~40 ng/mL, the “EC50 (read off the curve)” value [2] was ~9 ng/mL and the “EC50 (read off the curve)” value [3] was ~8 ng/mL. The “EC50 (read off the curve)” value [4] was ~40 ng/mL.

B2: 4a-E10 Fab (Fab, V domains shown)
VH: B1 VH with G10A, L12V, F39I, G46A, I84M, V87M, T104F, R105Q, G106S
VL: B1 VL with T7S, Q17E
B2 showed a Kd [5] of 18.5 nM and a Kd [6] of 3.6 nM.

B3: 4a-C9 Fab (Fab, V domains shown)
VH: B1 VH with G10A, L12V, F39I, G46A, I84M, V87M, T104Q, R105A, T107H
VL: B1 VL with T7S, Q17E
B3 was tested, and the Kd [5] was 8.43 nM and the Kd [6] was 2.46 nM.

B4: 20C2-1A Fab (Fab, V domains shown)
VH: B1 VH with G10A, L12V, L24F, F39I, G46A, I84M, V87M, T104L, G106S, T107I
VL: B1 VL with T7S, Q17E, L94F, T96A, T97S
B4 was tested, and the Kd [7] was 85 nM.

B5: 4a-D5 Fab (Fab, V domains shown)
VH: B1 VH with G10A, L12V, F39I, G46A, I84M, V87M, T104D, R105N, G106V, T107A
VL: B1 VL with T7S, Q17E
B5 gave a Kd [5] of 1.17 nM and a Kd [6] of 3.91 nM.

B6: 20C2-7A Fab (Fab, V domains shown)
VH: B1 VH with G10A, L12V, L24F, F39I, G46A, I84M, V87M, T104L, G106S, T107I
VL: B1 VL with T7S, Q17E, Q95N, T96S, R98T
B6 showed a Kd [7] of 435 nM.

B7: 20C2-13A Fab (Fab, V domains shown)
VH: B1 VH with G10A, L12V, L24F, F39I, G46A, I84M, V87M, T104L, G106S, T107I
VL: B1 VL with T7S, Q17E, T97S, R98N
Work on B7 yielded a Kd [7] of 567 nM.

B8: 20C2-18A Fab (Fab, V domains shown)
VH: B1 VH with G10A, L12V, L24F, F39I, G46A, I84M, V87M, T104L, G106S, T107I
VL: B1 VL with T7S, Q17E, L94M, T96S, T97S, R98F
With B8 the Kd [7] was 85 nM.

B9: 4b-D4 Fab (Fab, V domains shown)
VH: B1 VH with G10A, L12V, F39I, G46A, I84M, V87M, T104M, R105A, G106T, T107P
VL: B1 VL with T7S, Q17E
B9 showed a Kd [5] of 18.6 nM and a Kd [6] of 4.87 nM.

B10: 20C2-9A Fab (Fab, V domains shown)
VH: B1 VH with G10A, L12V, L24F, F39I, G46A, I84M, V87M, T104L, G106S, T107I
VL: B1 VL with T7S, Q17E, L94V, T97S, R98L
B10 gave a Kd [7] of 40 nM.

B11: 20C2-8A Fab (Fab, V domains shown)
VH: B1 VH with G10A, L12V, L24F, F39I, G46A, I84M, V87M, T104L, G106S, T107I
VL: B1 VL with T7S, Q17E
For B11, the Kd [7] was 13 nM.

B12: 20C2-12A Fab (Fab, V domains shown)
VH: B1 VH with G10A, L12V, L24F, F39I, G46A, I84M, V87M, T104L, G106S, T107I
VL: B1 VL with T7S, Q17E, T96S, T97S, R98L
B12 was tested, and the Kd [7] was 238 nM.

B13: 4b-A12 Fab (Fab, V domains shown)
VH: B1 VH with G10A, L12V, F39I, G46A, I84M, V87M, T104P, R105E, G106P, T107Q
VL: B1 VL with T7S, Q17E
Binder B13 has a Kd [5] of 154 nM and a Kd [6] of 10.1 nM.

B14: 4b-B10 Fab (Fab, V domains shown)
VH: B1 VH with G10A, L12V, F39I, G46A, I84M, V87M, T104A, R105H, G106W, T107L
VL: B1 VL with T7S, Q17E
B14 showed a Kd [5] of 62.8 nM and a Kd [6] of 7.43 nM.

B15: 20C2-10A IgG1 (antibody, V domains shown)
VH: B1 VH with G10A, L12V, L24F, F39I, G46A, I84M, V87M, T104L, G106S, T107I
VL: DVVMTQSPLSLPVTPGEPASISCRSSQSILHSNGNTYLEWYLQKPGQSPQLLIYKVSNRFSGVPDRFSGSGSGTDFTLKISRVEAEDVGVYYCFQGSRLPVSFGQGTKLEIK
notes: also called SJ-p3-33
B15 was tested, and the Kd [8] was 7.7 nM.

B16: 20C2-20A IgG1 (antibody, V domains shown)
VH: B1 VH with G10A, L12V, L24F, F39I, G46A, I84M, V87M, T104L, G106S, T107I
VL: B15 VL with R98L, L99F, V101P, S102V
notes: also called SJ-p3-15
For B16, the Kd [8] was 6.9 nM.

B17: 20C2-23A IgG1 (antibody, V domains shown)
VH: B1 VH with G10A, L12V, L24F, F39I, G46A, I84M, V87M, T104L, G106S, T107I
VL: B15 VL with F94H, G96S, R98K, L99V, V101L, S102T
notes: also called 4P1-40
Binder B17 has a Kd [8] of 0.085 nM and a Kd [9] of 0.066 nM.

B18: 20C2-12A IgG1 (antibody, V domains shown)
VH: B1 VH with G10A, L12V, L24F, F39I, G46A, I84M, V87M, T104L, G106S, T107I
VL: B15 VL with F94L, G96S, R98L, L99V, V101L, S102T
notes: also called 4P1-32
Binder B18 has a Kd [8] of 0.015 nM.

B19: 20C2-13A IgG1 (antibody, V domains shown)
VH: B1 VH with G10A, L12V, L24F, F39I, G46A, I84M, V87M, T104L, G106S, T107I
VL: B15 VL with F94L, G96T, R98N, L99V, V101L, S102T
notes: also called 4p1-20; 4P1-20
Work on B19 yielded a Kd [8] of 0.764 nM.

B20: 20C2-9A IgG1 (antibody, V domains shown)
VH: B1 VH with G10A, L12V, L24F, F39I, G46A, I84M, V87M, T104L, G106S, T107I
VL: B15 VL with F94V, G96T, R98L, L99V, V101L, S102T
notes: also called SJ-p2-51
Binder B20 has a Kd [9] of 0.002 nM.

B21: 20C2-18A IgG1 (antibody, V domains shown)
VH: B1 VH with G10A, L12V, L24F, F39I, G46A, I84M, V87M, T104L, G106S, T107I
VL: B15 VL with F94M, G96S, R98F, L99V, V101L, S102T
notes: also called SJ-p1-9M
B21 was tested, and the Kd [8] was 0.149 nM.
